{"source": "paper PMC3001473", "about": "(PLoS ONE, 2010)", "binders": {"B1": {"name": "wild-type human interferon-gamma (ligand, UniProt P01579 24-166, looked up)", "chain": "QDPYVKEAENLKKYFNAGHSDVADNGTLFLGILKNWKEESDRKIMQSQIVSFYFKLFKNFKDDQSIQKSVETIKEDMNVKFFNSNKKKRDDFEKLTNYSVTDLNVQRKAIHELIQVMAELSPAAKTGKRKRSQMLFRGRRASQ", "notes": "also called IFNγ; IFNγwt"}}, "molecular_target": "LcrV (V antigen) of Yersinia pestis (Yersinia pestis, UniProt P0C7U7 1-326)", "sequence (P0C7U7 whole entry)": "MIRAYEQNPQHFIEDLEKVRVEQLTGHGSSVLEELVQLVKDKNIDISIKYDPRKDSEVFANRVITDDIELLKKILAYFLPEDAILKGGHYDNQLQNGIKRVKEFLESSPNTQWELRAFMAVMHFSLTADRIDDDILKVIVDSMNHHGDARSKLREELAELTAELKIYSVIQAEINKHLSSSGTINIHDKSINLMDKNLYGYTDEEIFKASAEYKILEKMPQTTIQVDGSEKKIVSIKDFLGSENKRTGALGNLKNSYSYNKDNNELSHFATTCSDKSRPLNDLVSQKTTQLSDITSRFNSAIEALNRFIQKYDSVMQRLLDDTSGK", "assay": "SPR; Biacore 3000; […]; HBS-P pH 7.4; […]", "details": "both partners purified", "data": [{"binder": "B1", "values": [{"measurement": "Kd", "result": 32, "unit": "nM"}]}]}
